From the DeepSol protein solubility set

Experiment: soluble on expression in E. coli; label from the status in PepcDB or PDB records

| Sequence | soluble on expression in E. coli |
| --- | --- |
| GPGSMRSQRVLQRTRKQKMESSSCASAPIAVDAQDVVVPPAVAQARAWLSLYGACCTEEEVEMHPVVLSRVLQAVELVQSRSCLSSGSEGPLAATTTKHTCRSGEGDAEAATARSSPTALHEGDDSKRGKGEAGLSIDFGGLWMLLSEWIAILRSLVATVPLHTLSLRDTALGDAGLRCLCRQVATTSVKPASLEVASRCEACSFHLLGLSTLAAPPSCPPTIPGSWAASTLRLLDLSGAALTDGGPLASLLASCPQLHSLNLSDNSLGSRDAGLALLCAALQVHPSLEVLSLRRNCISGSRNGPAIAALAELIVARSVEGSRTLSKACGYGSALCRQQTPAAAAVAAQPLRRLDLSHNLLGTYFLLSDATMTHRAEAGRPSAAREYDMASSSGRHVGVHEAVASFPLVAALYLNNTLIELNLHNNGLPGALLEYVEAKLHVNQRTTGGGADFSKTVSTEIIASTTVRQVLIHRLRCTLDHILAGTANASGMVGATHTERGDAPPTEVPAESQSSVLSAAERRWTTGEVSELVQRLVYNVASDLSLF | not soluble |
| GPGSMRYRLRLDAFAPAGSLPCCRILTQVRNLNMNRSVQTRWESDNQVASQKRTDYDFDKEQWSKQMRFASMDCVMDPDITPIKYTSVTGLKKVLRRFMTMRKLIDRRPDFKTDDLKKLFIQLKTISHSRSLEDLKVLQRLTTHGEASRISKEIKTRMNDEFAKKSWKSLKMQEVSNTYQIELDSFQLVNCYMGQMSKEDWLQITYKCEFRERKGDNEEWQSVCEYPVFEVRLGDGVQSPNTHHFIIVGIMRKDGTRYGKDAQDAASLRKQFDRSRKWF | not soluble |
| GPGSMSALWARFTEKLKGSGYTLSDLVYCSEDTFLTLVANMNAFTPLQIASLAKEWQRSLSAAATPTATVSGSALPISRRHAESTRLSSSPVRSSALNRATLPATGAAETPPNHSTLSTALRKNSFVPPRRSPAKVKEEAEYLLTKLGAQSGAEYQVSLTEGIVAVEASPEAWGPLLDRVSRMHVTSHRDSAAAATPLATELQLLWKLCSPATLRKMEKACVSGAPFGLSNQDDADGLCSSAVVLYGKDATRLAAPAEELEQLFREGWGLVAFDVAVGKARTVTKEEAQDLNANLYRFSMEQCLEMLEEAGFDAFHIPSRNAVAVCHMHQLMPRFVVFVSTLEPVVVTRRLGDAVPAVGNGRPSRAPPAPAASPSPSAVAAAAAALPAARRSINGGDDVLVPASRSSRNSEDLQCAVHSKKTVEFWSPTEKRLLCSHCLYYDGYSQENCIPIEQAAREEAPRLERWVQNAITFSQEIKSVFDLFEAAQTDVSQTHKQVRSDIAHSFTRLRARLDALEANLQQQCQQKAQQNLQVLQDTLSRITATVQFVSEVVQDADEPVAAYRGGVADTNTCVALLRSAQRAFGAWEPVTISAYEDVRIVDGSALLQPVEEALKAVQSISSEAGKVQLPEAIDVNYLKSDCDV | not soluble |
| GPGSMSKLISDAIAAEDASKWNTSYELYPPRSEKAEEDMMKVLVPNFMHQSPVFLDLTWGAGGRTSGTTMRLCKDLQHAHPDTPINMHITCTNTPKGLIKETLEFAKTHGIRNILALRGDPPSGEEFQVDPDGFACARDLVRYIRDTYGDYFCVSVAGYPEGHPSRIAENGTISHEDHQKELEYLKEKVDAGASFIITQLFYDASLYVKFVKRCREVGITVPILAGLLPITTYAGFVRMVSLCKTSVPSDVKKRVEELKENPDGLKEYGVEQCVQMIECIRASGLDYHHLHFYTLNNSAQIFKILKRLNALVE | soluble |
| GPGSMSLIFFCIIPHPFTRTKCSKVSIIMQMLAPGAFFNALKVRGVTHFFGVPDPILKYFCAFVASHTTPKEHIITANEGNAVAMAAGYHLATGGLPLVYMKNSGLGDALNPLISLTHAEACSIPMFIVVGWRGAPDAGNELPCAAEGRLTEGILRAAEVPYIILSSACGNGEQSMETALDMALKHVHNSRTPYAFLVPPNFFEECAYEGVGEGIAELPMTRREAVEQALRQIDRGDIVVGAASFLAREIFEVQECAGMRHGPQFFPVGSMGHCSSVAAGIALAKPERQVFCFDGDGAFLMHMGSSATIGGVAAIHLIGTGETSLMRNYKHVVFNNGSHDSAGGQPTVSFDVSLTQVASACGFRTVREEPVMDLGETVRALQELKKAEGPAFLEVFVRRGGHSNPQCELPSLDESKQALTNCLRG | not soluble |
| GPGSMSNIKKVQTEADRLLKKVNEGLDAYDELHEKLANAPNASAKERLEGDLKRELKKLQRHREAMKSFMQNDDYKEKMKMQVSRKKIEERMETFRAIEREMKTKAFSNEGLASAALERADSATEQWLKDAIEEGRKKIELLEYEVQKANNGRVRRGKQQKSEYQIRLENLQTHFFKWESLLRMVNNEELDTDEVDDLQEPIQKVLEDDVDLDVMEDMSIYDSFDIPEPKAKPVVPFDVSDYEDKKVQSPKTTAKAKTPTSTVQAKPSPFITSPKETAASPPAAKAASSTPVPSSMQQPALAQAPQQQLLPPTANSPADDDIGEEEPVPEWMDDDMDTANDDTFGDAAMSGGFTIGSLAEMASATNKVTQDWEKSQKPVGSLEPKTVKVTDPVHGAPEEKRKPTPPVAAPTPNAWERRAAEQQSRQKVQQQQQKQAPEAASPVAPLGPVAAAAEASAPEAVTTSLINPVAATSPSTPAGSANTDPIQPFPPIPGAAPGSKFTPKKIHELLDMSLGNLPHTLDVQRQRPYEPPNAIDAIPYFPQEVLPVLSNKDVYHQMDLDTLFFIFYYHQKSYQQYFAAKELKARSYRYHTKQQRWYQRLERPQTTTETEERGSYTFFDFEDKWDHDRIDDFLFEYKYLENELH | soluble |
| GPGSMSSCTHPTSALFVDRQNGRTTCTICGDVVTTDQYELDPIFAQGGRQPASGGGLRGLAGSFRPATSYKGTHTGVIHSHSRPTIDKARREMLNISRQLEISEDTVERALGIYKVALNLNAVSGTRPSVLCACLYAACRRERTSHVIYDFSEINGEDPHTILSQMKYICHATHTEVPVIDPSCYVQRFAEQMDLGPQTTDVVVCALKVLRAMQDDWISCGRRPMGVCAAALLVACYVFGISRTPEQVCGMVRLTSNTIGKRLTEFAATPTARLENIDDYQPSHETLPPAFNDSSRKSTEEDVHASMRELSAIFYELVSEAKTSQPATPERCDKWRRFIMKHCELEGITPLEENLDLKGLPPAQQLHILGLPHTKPIPLEEVARSVKREEHRLLVKREASLQNGSDAGGSMSGARQGAVAGLLNNADVSSNGIPLYLLPDESLASSLAQASPAMGYADDGGMHSSSAAVGAASMDSPEQLRWMTDEYTRLLNSNAEVMHLRNDFDFADEDDANGAGGSSGGGAVAPPVSHPTQNQPFSCGLSQLRGGSPPPGTPAEEDPFGFFDRDDEGTRLALEEILYDRERRHALPWEFLVLPRVEEDDCTDILSYLVLDNEERLRRERIGVSLYGEKWKRGRARTDEEIQKLEEARASKRRRRSVIAEPAVDVPTAMERALRGRGAGTVNISQIGELLPGMLEFLEDEPQADWD | not soluble |
| GPGSMSSSDQFLVDELRSRLKRRRADIVRYLDGLFYEDCRRIIECVSELDSDNLFLRNPSSLPDYAQHVTRPMYWELIQRKLQRYEYRAAADFMADMRAVVNNCYLYNGIQAPASKLARAIEVLMEDRFVTELRAAPVQPAEVK | not soluble |
| GPGSMSVRIRFILTGACPPSYSGKQVQLNFPLEDENGAPTTTAHLKQLIRTQWPENMSEMKEVVEKTEMRVLKTGNLLSDDTQIRSVLTATELSECSINPSAEGSGRADEDQKSVLMHLVFQSNQSQGRQRDGSAGGGRRDNASHDSGCCTML | soluble |
| GPGSMTDFYSLIPSAPKGRFDGIERAHTAEDVKRLRGSVEIKYSLAEMGANRLWKLIHEEDFVNALGALSGNQAMQMVRAGLKAIYLSGWQVAADANTASAMYPDQSLYPANAGPELAKRINRTLQRADQIETAEGKGLSVDTWFAPIVADAEAGFGDPLDAFEIMKAYIEAGAAGVHFEDQLASEKKCGHLGGKVLIPTAAHIRNLNAARLAADVMGTPTLIVARTDAEAAKLLTSDIDERDQPFVDYEAGRTAEGFYQVKNGIEPCIARAIAYAPYCDLIWMETSKPDLAQARRFAEAVHKAHPGKLLAYNCSPSFNWKKNLDDATIAKFQRELGAMGYKFQFITLAGFHQLNYGMFELARGYKDRQMAAYSELQQAEFAAEADGYTATKHQREVGTGYFDAVSLAITGGQSSTTAMKESTETAQFKPAAE | soluble |
| GPGSMTHDSRTPQGKSRVSGGSSCFPSGYLNNESFDLNSETDHVSANSSTCHPAESYHLLLPRELQTPAQHFTTPEIPEISSHSPLCSALFSSVTEMQHQSVLEVGVASDQGIRSSMEDEHVTVVEPEVCFFGIYDGHGGRQCAEYVRARLHEITLAHECLKTDPRKAISDAFAQVEREFLGQNTNDMSSAGCVCAAAVVQGSVLTVGNVGDCEVVLARAGQPVLLTVKHNPSCNDAEATRVKKAGGCIFNCRVGHPRFNPRMCSLAVSRAVGDAGFKLEEYTNGKPSGIIAVADTSEVLLAKDDEFLILACDGLWDTMSYAEAVELATAYMASGADANSVADQLVGEALRRGTRDNVTAIFVRLGGSAQAGLGDANK | not soluble |
| GPGSMVACTRLRRTQKVAKQKTETASNSHPRTSFLRRGRSTDCDIGALHVAATRVTLSVSHYATLLEGSVICVCFGFRLAAAAATNQLASSRLYRVPFAPLTSGLTNEKVLLRWSVAMSRKDAERKLTEDDCLTSSQQYDPQLIFYVPLRRKGYQAIDASAFVRCGGLRVVDISGNRLSTLSGLESVAPQLTFLNAAENSLHDIGALVTCAALERCMLEGNKLASVDSLQPLVSLPCLAELVLQRHVPLDDAAIGSGSPEQSSDKLLLLDNPVCRDAVAYREHFLAKMSHVRWVDGVSTYLRASSLAESTTTESHDAKENSTKAIVDAAIRSFQSIRVQMTATVSEETTLRHQLERAADRCKPSTVTVAARTP | not soluble |
| GPGSMWDVVSRVGKAAYRTAALTGLAAGTEQPPYPCALPLKTVSSDSDVDSMREVLNSAFDASKDMLENNGEHQWQLVDYVDPEEGGDLHLFTRPRVGPFNFVKATLSFMGVSPQNVLDTMHSDNADDRKRYSANLSHFEVLAKPMAGCAIELHKYWAPPPVAGREFVFAAEKKYVESENVYYVHGCSIDYTPQMETSKGFVRAACLWAWKLMPVGDNTLATYVSCMNPRGWTPPFIFGWLKSEIGKELVACRRVLYGETVKVERTTLQGMGLSDEVNNLTDEERKRMSEGEPQPEAS | soluble |
| GPGSMYVGCVGKDKHGDQIRSAAEADGTTMELEVSSDKRSGLCVVCRDGNSRTLVVHPSSASSLRDDFVSSAAAQEGQRSAKTVYTTAYASVVRVRQTLQLMTSSRCHTLPDGLKQLAAMGLANQRVLDDFGEGLVDVLGKLDIIIGNPEEMYDLAMMLQWVPSEMSDMVLAKKIATEMMCDRHGVRRVIMTRGAEPIIYAASAGESGEVPVVATCAHSAKLLATGAGDAFAGGFLAAMAAKPDDVAFCCRLSAQAATFMINHSLVTLRTDEACLAELQT | not soluble |
| GPGSTRCQRERLLYVRRFDPVRGYHLRAAEDISVGTIIFQDECRPVRLCTKPYALQHFSKADYVDFQHNAWPVGRDGHYYALWDHDPAQWRAFNHSCEPNMSFAPMRSLDVVALRNIPKGEELTMDYRQFMDSTMPGFQCNCGTEKCEGFVSPGSLVDSPTAKIASQPTVALRHNIAVRLNPI | not soluble |
| GPLGSDDVEWVVGKDKPTYDEIFYTLSPVNGKITGANAKKEMVKSKLPNTVLGKIWKLADVDKDGLLDDEEFALANHLIKVKLEGHELPADLPPHLVPPSKRRHE | soluble |
| GPLGSKNMLLEWCRAMTRNYEHVDIQNFSSSWSSGMAFCALIHKFFPEAFDYAELDPAKRRHNFTLAFSTAEKLADCAQLLEVDDMVRLAVPDSKCVYTYIQELYRSLVQKGLVKTKKK | soluble |
| GPLGSLYAIVLYDFKAEKADELTTYVGENLFICAHHNCEWFIAKPIGRLGGPGLVPVGFVSIIDIATGYATGNDVIEDIKSVNLPTVQEWKSNIARYKASNISLGSVE | soluble |
